The values that follow are results of earlier work, collected in paper PMC7054563.

The series addresses Glu150 (UniProt position 150, LMANVELIAPL).

As a reminder, the pKa is the pH at which an ionisable group is half protonated. Regarding “Multidrug transporter MdfA, triple mutant E26T/D34M/A150E (Escherichia coli; E26T;D34M;A150E)”, the pKa is given as 6.5.
